Measurements from patent US20100260668A1 (published 2010).
Blank lines part the entries; values can stand above or below the binder they belong to.

Tests used:
[1] = target: recombinant human HGF (human, UniProt P14210 32-728); experiment: cell-based or functional assay
[2] = target: recombinant human VEGF165 (human, UniProt P15692-4 27-191); experiment: cell-based or functional assay
[3] = target: T1, placental growth factor (PLGF) (UniProt P49763-2 21-149, limits assumed); experiment: ligand-receptor binding competition assay, PlGF binding to VEGFR1; N-terminal VD
T1 construct: also called P1GF
T1 sequence (looked up): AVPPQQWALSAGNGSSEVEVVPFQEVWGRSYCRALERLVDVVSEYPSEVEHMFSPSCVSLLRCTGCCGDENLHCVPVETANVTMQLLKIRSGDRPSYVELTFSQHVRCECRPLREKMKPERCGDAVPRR

[4] = target: T2, HGF (UniProt P14210 32-728); experiment: Biacore SPR
T2 construct: Bought reagent
T2 sequence (P14210 32-728 limits assumed): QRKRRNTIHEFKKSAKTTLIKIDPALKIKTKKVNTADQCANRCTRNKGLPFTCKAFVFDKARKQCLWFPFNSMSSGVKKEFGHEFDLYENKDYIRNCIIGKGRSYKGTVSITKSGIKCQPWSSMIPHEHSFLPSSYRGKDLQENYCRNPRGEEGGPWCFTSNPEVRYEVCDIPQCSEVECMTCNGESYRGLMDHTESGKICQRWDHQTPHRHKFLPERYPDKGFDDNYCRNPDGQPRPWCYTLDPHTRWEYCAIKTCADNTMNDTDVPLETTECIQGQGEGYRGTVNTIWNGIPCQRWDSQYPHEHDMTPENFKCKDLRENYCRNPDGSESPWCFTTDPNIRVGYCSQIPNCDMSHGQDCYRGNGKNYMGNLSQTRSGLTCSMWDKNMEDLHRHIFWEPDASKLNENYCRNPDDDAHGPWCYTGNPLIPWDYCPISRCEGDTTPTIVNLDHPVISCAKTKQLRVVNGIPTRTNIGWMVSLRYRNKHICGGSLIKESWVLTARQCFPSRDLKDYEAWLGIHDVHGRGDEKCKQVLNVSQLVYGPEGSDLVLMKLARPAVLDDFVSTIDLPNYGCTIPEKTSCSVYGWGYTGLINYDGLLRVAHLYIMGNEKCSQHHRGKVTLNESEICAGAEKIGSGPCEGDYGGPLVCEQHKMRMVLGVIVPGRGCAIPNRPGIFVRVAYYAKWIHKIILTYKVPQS
Experimental: The BIACORE assay (Biacore, Inc, Piscataway, N.J.) determines the affinity of antibodies or DVD-Ig with kinetic measurements of on-rate and off-rate constants. Binding of antibodies or DVD-Ig to a target antigen (for example, a purified recombinant target antigen) is determined by surface plasmon resonance-based measurements with a Biacore® 1000 or 3000 instrument (Biacore® AB, Uppsala, Sweden) using running HBS-EP (10 mM HEPES [pH 7.4], 150 mM NaCl, 3 mM EDTA, and 0.005% surfactant P20) at 25° C. […] For example, approximately 5000 RU of goat anti-mouse IgG, (Fcγ), fragment specific polyclonal antibody (Pierce Biotechnology Inc, Rockford, Ill.) diluted in 10 mM sodium acetate (pH 4.5) is directly immobilized across a CM5 research grade biosensor chip using a standard amine coupling kit according to manufacturer's instructions and procedures at 25 μg/ml. Unreacted moieties on the biosensor surface are blocked with ethanolamine. Modified carboxymethyl dextran surface in flowcell 2 and 4 is used as a reaction surface. Unmodified carboxymethyl dextran without goat anti-mouse IgG in flow cell 1 and 3 is used as the reference surface. For kinetic analysis, rate equations derived from the 1:1 Langmuir binding model are fitted simultaneously to association and dissociation phases of all eight injections (using global fit analysis) with the use of Biaevaluation 4.0.1 software. Purified antibodies or DVD-Ig are diluted in HEPES-buffered saline for capture across goat anti-mouse IgG specific reaction surfaces. Antibodies or DVD-Ig to be captured as a ligand (25 μg/ml) are injected over reaction matrices at a flow rate of 5 μl/min. The association and dissociation rate constants, kₒₙ (M⁻¹s⁻¹) and koff (s⁻¹) are determined under a continuous flow rate of 25 μl/min. Rate constants are derived by making kinetic binding measurements at different antigen concentrations ranging from 10-200 nM. The equilibrium dissociation constant (M) of the reaction between antibodies or DVD-Igs and the target antigen is then calculated from the kinetic rate constants by the following formula: KD=koff/kₒₙ. Binding is recorded as a function of time and kinetic rate constants are calculated.

Chain of recombinant human VEGF165 (P15692 other isoform, or with tags, fused parts or gaps limits assumed): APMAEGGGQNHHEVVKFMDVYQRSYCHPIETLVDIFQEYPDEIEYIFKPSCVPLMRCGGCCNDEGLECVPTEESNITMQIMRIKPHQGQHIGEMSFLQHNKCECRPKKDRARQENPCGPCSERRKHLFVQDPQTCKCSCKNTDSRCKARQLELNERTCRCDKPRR
Chain of recombinant human HGF (P14210 32-728 limits assumed): as the sequence (P14210 32-728 limits assumed) above

inhibition of HUVEC proliferation (IC50) [2]: 59.5 nM
B2: DVD485 (bispecific antibody, human IgG1, kappa)
heavy: not shown
light: DIQMTQSPSSLSASVGDRVTITCRASQDVSTAVAWYQQKPGKAPKLLIYSASFLYSGVPSRFSGSGSGTDFTLTISSLQPEDFATTYYCQQSYTGTVTFGQGTKVEIKRTVAAPSVFIFPPDIQMTQSPSSLSASVGDRVTITCRASQVIRRSLAWYQQKPGKAPKLLIYAASNLASGVPSRFSGSGSGTDFTLTISSLQPEDFATYYCQQSNTSPLTFGQGTKVEIKRTVAAPSVFIFPPSDEQLKSGTASVVCLLNNFYPREAKVQWKVDNALQSGNSQESVTEQDSKDSTYSLSSTLTLSKADYEKHKVYACEVTHQGLSSPVTKSFNRGEC

IC50 [3]: 2.59 nM
B5: DVD573 (bispecific antibody, human IgG1, kappa)
heavy: not shown
light: DIVLTQSPDSLAVSLGERVTMNCKSSQSLLNSGMRKSFLAWYQQKPGQSPKLLIYWASTRESGVPDRFTGSGSGTDFTLTISSVQAEDVAVYYCKQSYHLFTFGSGTKLEIKRTVAAPDIQMTQSPSSLSASVGDRVTITCRASQDVSTAVAWYQQKPGKAPKLLIYSASFLYSGVPSRFSGSGSGTDFTLTISSLQPEDFATYYCQQSYTTPPTFGQGTKVEIKRTVAAPSVFIFPPSDEQLKSGTASVVCLLNNFYPREAKVQWKVDNALQSGNSQESVTEQDSKDSTYSLSSTLTLSKADYEKHKVYACEVTHQGLSSPVTKSFNRGEC
notes: also called DVD573H; DVD573L

inhibition of HUVEC proliferation (IC50) [2]: 0.88 nM
B10: DVD486 (bispecific antibody, human IgG1, kappa)
heavy: not shown
light: DIQMTQSPSSLSASVGDRVTITCRASQVIRRSLAWYQQKPGKAPKLLIYAASNLASGVPSRFSGSGSGTDFTLTISSLQPEDFATYYCQQSNTSPLTFGQGTKVEIKRTVAAPSVFIFPPDIQMTQSPSSLSASVGDRVTITCRASQDVSTAVAWYQQKPGKAPKLLIYSASFLYSGVPSRFSGSGSGTDFTLTISSLQPEDFATTYYCQQSYTGTVTFGQGTKVEIKRTVAAPSVFIFPPSDEQLKSGTASVVCLLNNFYPREAKVQWKVDNALQSGNSQESVTEQDSKDSTYSLSSTLTLSKADYEKHKVYACEVTHQGLSSPVTKSFNRGEC

IC50 [3]: 2.9 nM
B11: DVD575 (bispecific antibody, human IgG1, kappa)
heavy: not shown
light: DIVLTQSPDSLAVSLGERVTMNCKSSQSLLNSGMRKSFLAWYQQKPGQSPKLLIYWASTRESGVPDRFTGSGSGTDFTLTISSVQAEDVAVYYCKQSYHLFTFGSGTKLEIKRTVAAPDIQMTQSPSSLSASVGDRVTITCRASQVIRRSLAWYQQKPGKAPKLLIYAASNLASGVPSRFSGSGSGTDFTLTISSLQPEDFATYYCQQSNTSPLTFGQGTKVEIKRTVAAPSVFIFPPSDEQLKSGTASVVCLLNNFYPREAKVQWKVDNALQSGNSQESVTEQDSKDSTYSLSSTLTLSKADYEKHKVYACEVTHQGLSSPVTKSFNRGEC
notes: DVD-Ig, N-term PlGF (AB047) / C-term VEGF (AB071); also called DVD575H; DVD575L

IC50 [3]: 3.5 nM
B13: DVD581 (bispecific antibody, human IgG1, kappa)
heavy: not shown
light: DIVLTQSPDSLAVSLGERVTMNCKSSQSLLNSGMRKSFLAWYQQKPGQSPKLLIYWASTRESGVPDRFTGSGSGTDFTLTISSVQAEDVAVYYCKQSYHLFTFGSGTKLEIKRTVAAPSVFIFPPDIQMTQSPSSLSASVGDRVTITCRASQDVSTAVAWYQQKPGKAPKLLIYSASFLYSGVPSRFSGSGSGTDFTLTISSLQPEDFATYYCQQSYTTPPTFGQGTKVEIKRTVAAPSVFIFPPSDEQLKSGTASVVCLLNNFYPREAKVQWKVDNALQSGNSQESVTEQDSKDSTYSLSSTLTLSKADYEKHKVYACEVTHQGLSSPVTKSFNRGEC
notes: also called DVD581H; DVD581L

Continued, binder first:

B1: AB012 (antibody, human IgG1, kappa, V domains shown)
VH: QVQLVESGGGLVKPGGSLRLSCAASGFTFSDYYMSWIRQAPGKGLEWVSYISSSGSTIYYADSVKGRFTISRDNAKNSLYLQMNSLRAEDTAVYYCARDEYNSGWYVLFDYWGQGTLVTVSS
VL: DIQMTQSPSSVSASVGDRVTITCRASQGISSWLAWYQQKPGKAPNLLIYEASSLQSGVPSRFGGSGSGTDFTLTISSLQPEDFATYYCQQANGFPWTFGQGTKVEIKR
Inhibition Of Akt Phosphorylation (% Inhibition At 0.67 nM Ab/DVD) [1]: 79%
Inhibition Of Akt Phosphorylation (% Inhibition At 6.7 nM Ab/DVD) [1]: 110%
Inhibition Of Akt Phosphorylation (% Inhibition At 67 nM Ab/DVD) [1]: 106%

B3: DVD470 (bispecific antibody, human IgG1, kappa)
heavy: not shown
light: DIQMTQSPSSLSASVGDRVTITCSASQDISNYLNWYQQKPGKAPKVLIYFTSSLHSGVPSRFSGSGSGTDFTLTISSLQPEDFATYYCQQYSTVPWTFGQGTKVEIKRTVAAPSVFIFPPDIQMTQSPSSLSASVGDRVTITCRASQDVSTAVAWYQQKPGKAPKLLIYSASFLYSGVPSRFSGSGSGTDFTLTISSLQPEDFATTYYCQQSYTGTVTFGQGTKVEIKRTVAAPSVFIFPPSDEQLKSGTASVVCLLNNFYPREAKVQWKVDNALQSGNSQESVTEQDSKDSTYSLSSTLTLSKADYEKHKVYACEVTHQGLSSPVTKSFNRGEC
inhibition of HUVEC proliferation (IC50) [2]: 0.45 nM

B4: DVD482 (bispecific antibody, human IgG1, kappa)
heavy: not shown
light: DIQMTQSPSSLSASVGDRVTITCSASQDISNYLNWYQQKPGKAPKVLIYFTSSLHSGVPSRFSGSGSGTDFTLTISSLQPEDFATYYCQQYSTVPWTFGQGTKVEIKRTVAAPSVFIFPPDIQMTQSPSSLSASVGDRVTITCRASQDVSTAVAWYQQKPGKAPKLLIYSASFLYSGVPSRFSGSGSGTDFTLTISSLQPEDFATTYYCQQSYTGTVTFGQGTKVEIKRTVAAPSVFIFPPSDEQLKSGTASVVCLLNNFYPREAKVQWKVDNALQSGNSQESVTEQDSKDSTYSLSSTLTLSKADYEKHKVYACEVTHQGLSSPVTKSFNRGEC
inhibition of HUVEC proliferation (IC50) [2]: 0.32 nM

B6: DVD471 (bispecific antibody, human IgG1, kappa, L234A L235A)
heavy: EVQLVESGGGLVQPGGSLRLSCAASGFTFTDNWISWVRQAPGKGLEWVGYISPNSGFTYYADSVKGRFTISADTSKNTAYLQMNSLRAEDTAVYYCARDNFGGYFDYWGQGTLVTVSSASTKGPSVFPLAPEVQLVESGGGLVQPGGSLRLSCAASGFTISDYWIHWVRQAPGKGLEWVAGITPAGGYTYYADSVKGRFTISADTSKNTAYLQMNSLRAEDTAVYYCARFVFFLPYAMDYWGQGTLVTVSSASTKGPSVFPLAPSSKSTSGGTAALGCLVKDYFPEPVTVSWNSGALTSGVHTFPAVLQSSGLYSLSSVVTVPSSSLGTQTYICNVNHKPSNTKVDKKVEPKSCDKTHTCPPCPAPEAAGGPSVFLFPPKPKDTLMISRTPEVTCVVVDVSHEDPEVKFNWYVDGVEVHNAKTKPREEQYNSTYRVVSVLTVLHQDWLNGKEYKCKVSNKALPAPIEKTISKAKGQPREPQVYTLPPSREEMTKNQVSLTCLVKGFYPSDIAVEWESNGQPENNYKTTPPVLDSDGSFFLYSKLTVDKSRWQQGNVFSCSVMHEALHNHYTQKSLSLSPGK
light: DIQMTQSPSSLSASVGDRVTITCRASQDVSTAVAWYQQKPGKAPKLLIYSASFLYSGVPSRFSGSGSGTDFTLTISSLQPEDFATTYYCQQSYTGTVTFGQGTKVEIKRTVAAPSVFIFPPDIQMTQSPSSLSASVGDRVTITCRASQDVSTAVAWYQQKPGKAPKLLIYSASFLYSGVPSRFSGSGSGTDFTLTISSLQPEDFATYYCQQSYTTPPTFGQGTKVEIKRTVAAPSVFIFPPSDEQLKSGTASVVCLLNNFYPREAKVQWKVDNALQSGNSQESVTEQDSKDSTYSLSSTLTLSKADYEKHKVYACEVTHQGLSSPVTKSFNRGEC
inhibition of HUVEC proliferation (IC50) [2]: 6.8 nM

B7: DVD034 (bispecific antibody, human IgG1, kappa)
heavy: not shown
light: DIQMTQSPSSVSASVGDRVTITCRASQGISSWLAWYQQKPGKAPNLLIYEASSLQSGVPSRFGGSGSGTDFTLTISSLQPEDFATYYCQQANGFPWTFGQGTKVEIKRTVAAPDVVMTQSPLSLPVTPGEPASISCRSSQSLLHSNGFNYVDWYLQKPGQSPHLLIYFGSYRASGVPDRFSGSGSGTDFTLKISRVEAEDVGVYYCMQALQTPPWTFGQGTKVEIRRTVAAPSVFIFPPSDEQLKSGTASVVCLLNNFYPREAKVQWKVDNALQSGNSQESVTEQDSKDSTYSLSSTLTLSKADYEKHKVYACEVTHQGLSSPVTKSFNRGEC
notes: N-terminal VD HGF, C-terminal VD RON; also called DVD034H; DVD034L
Kd [4]: 0.0215 nM
koff [4]: 6.55e-05 s⁻¹
kon [4]: 3.05e+06 M⁻¹ s⁻¹

B8: AB071 (antibody, human IgG1, kappa, L234A L235A, V domains shown)
VH: EVQLVESGGGLVQPGGSLRLSCAASGFTINASWIHWVRQAPGKGLEWVGAIYPYSGYTNYADSVKGRFTISADTSKNTAYLQMNSLRAEDTAVYYCARWGHSTSPWAMDYWGQGTLVTVSS
VL: DIQMTQSPSSLSASVGDRVTITCRASQVIRRSLAWYQQKPGKAPKLLIYAASNLASGVPSRFSGSGSGTDFTLTISSLQPEDFATYYCQQSNTSPLTFGQGTKVEIKR
inhibition of HUVEC proliferation (IC50) [2]: 2.5 nM

B9: DVD474 (bispecific antibody, human IgG1, kappa)
heavy: not shown
light: DIQMTQSPSSLSASVGDRVTITCRASQVIRRSLAWYQQKPGKAPKLLIYAASNLASGVPSRFSGSGSGTDFTLTISSLQPEDFATYYCQQSNTSPLTFGQGTKVEIKRTVAAPSVFIFPPDIQMTQSPSSLSASVGDRVTITCRASQDVSTAVAWYQQKPGKAPKLLIYSASFLYSGVPSRFSGSGSGTDFTLTISSLQPEDFATTYYCQQSYTGTVTFGQGTKVEIKRTVAAPSVFIFPPSDEQLKSGTASVVCLLNNFYPREAKVQWKVDNALQSGNSQESVTEQDSKDSTYSLSSTLTLSKADYEKHKVYACEVTHQGLSSPVTKSFNRGEC
inhibition of HUVEC proliferation (IC50) [2]: 0.42 nM

B12: DVD045 (bispecific antibody, human IgG1, kappa)
heavy: not shown
light: DIQMTQSPSSLSASVGDRVTITCSASQDISNYLNWYQQKPGKAPKVLIYFTSSLHSGVPSRFSGSGSGTDFTLTISSLQPEDFATYYCQQYSTVPWTFGQGTKVEIKRTVAAPDIQMTQSPSSVSASVGDRVTITCRASQGISSWLAWYQQKPGKAPNLLIYEASSLQSGVPSRFGGSGSGTDFTLTISSLQPEDFATYYCQQANGFPWTFGQGTKVEIKRTVAAPSVFIFPPSDEQLKSGTASVVCLLNNFYPREAKVQWKVDNALQSGNSQESVTEQDSKDSTYSLSSTLTLSKADYEKHKVYACEVTHQGLSSPVTKSFNRGEC
Inhibition Of Akt Phosphorylation (% Inhibition At 0.67 nM Ab/DVD) [1]: -15%
Inhibition Of Akt Phosphorylation (% Inhibition At 6.7 nM Ab/DVD) [1]: -2%
Inhibition Of Akt Phosphorylation (% Inhibition At 67 nM Ab/DVD) [1]: 64%

B14: AB008 (antibody, human IgG1, kappa, V domains shown)
VH: QVQLVQSGAEVKKPGSSVKVSCKASGYTFTSYWLHWVRQAPGQGLEWIGYINPRNDYTEYNQNFKDKATITADESTNTAYMELSSLRSEDTAFYFCARRDITTFYWGQGTTVTVSS
VL: DIQLTQSPSSLSASVGDRVTMSCKSSQSVLYSANHKNYLAWYQQKPGKAPKLLIYWASTRESGVPSRFSGSGSGTDFTFTISSLQPEDIATYYCHQYLSSWTFGGGTKLEIKR
Inhibition Of Akt Phosphorylation (% Inhibition At 6.7 nM Ab/DVD) [1]: -13%
Inhibition Of Akt Phosphorylation (% Inhibition At 67 nM Ab/DVD) [1]: 8%

B15: DVD476 (bispecific antibody, human IgG1, kappa)
heavy: not shown
light: DIQMTQSPSSLSASVGDRVTITCSASQDISNYLNWYQQKPGKAPKVLIYFTSSLHSGVPSRFSGSGSGTDFTLTISSLQPEDFATYYCQQYSTVPWTFGQGTKVEIKRTVAAPDIQMTQSPSSLSASVGDRVTITCRASQDVSTAVAWYQQKPGKAPKLLIYSASFLYSGVPSRFSGSGSGTDFTLTISSLQPEDFATTYYCQQSYTGTVTFGQGTKVEIKRTVAAPSVFIFPPSDEQLKSGTASVVCLLNNFYPREAKVQWKVDNALQSGNSQESVTEQDSKDSTYSLSSTLTLSKADYEKHKVYACEVTHQGLSSPVTKSFNRGEC
inhibition of HUVEC proliferation (IC50) [2]: 0.24 nM
